Test results as given in the DeepSol protein solubility set.

test: soluble on expression in E. coli; label from the status in PepcDB or PDB records

Sequence	soluble on expression in E. coli
MKEDLLDIVCCPLDKHDLTLDADATEDGEVMAGTLTCTDCGETYPIEDGIPNLLPPDMRDDAESASALEHHHHHH	not soluble
MKEERRRLLAKVAYLHYVQGKSQTLISKEMNIYRTTVCRMLAKAKEEGIVRIEIADYDADLFALEEYVRQQYGLEKLDLVPNQVEDTPMDTLTNVAKTAAEVFRHVVKDGDKIGLSWGATLSCLMDELNPKAMKDVFIYPLAGGPSHINAKYHVNTLVYRLARIFHGNSAFMNAMVIQEDKHLAKGILQSKYFNDILTSWDQLDLALVGIGGEPNSLEQSQWRDLLTSSDHDQLKYEKAVGEVCCRFFDQAGQPVYTGLQDRTIGISLEQLRRVPKTMAVATGKHKAKAILAALKAGFINYLVTDKETMLAVLALDEDIDLNNVLL	not soluble
MKEHVKDKKTAIMGAALKLFTERGFHGTSTAQISKNAGVATGTLFNYFPTKEDLINSLYFEVKGNLGHSMGVGLEAETTFQDKLKRIWSNLVNWGVNNQEEFLFVGQFCSSPYITKFTRDEVMKEYVFLHNFVDEGIKTGEVRDFPAELVIAMFYQGSREVVNLILDSDSSLDKNKIIADGFQILWRGLAKV	not soluble
MKEKISEKEYKALIRKTGKEHFDGEKEEYGDGTVGVWTYELRKYKLKPPVKVKYVTQEQFQEYKDSNNQRLIKIENKVDKLVEIVQIHGEQIKAQGETLQLILQTLQKMSDRLDKMEKRIDKLESK	soluble
MKEVIFTENAPKPIGPYSQAIKAGNFLFIAGQIPIDPKTGEIVKGDIKDQTRQVLENIKAILEAAGYSLNDVIKVTVYLKDMNDFAKMNEVYAEYFGESKPARVAVEVSRLPKDVLIEIEAIAYKE	soluble
MKEYLKEKAHQLPLTPGVYLMKDATDTIIYVGKAKKLKNRVSSYFINSNQHSRKTMRLVKQIIDFDVLHTDTELDALLLECQLIQQYRPRYNRQMNAYEQYSYVSVAVNERQLEIKLLNIPTKENCFGPYSIRRKLNRLKIILDSIYDLVPTNYWHQTFQKESAIPTELFQQELFDFFHNQGREPIKRIAQQMQEAAEKQAFEKAAKLKEDWLFLTRFANQNQRISQANQRDWQLMWLPCQKKIKYYLIYQGLVVATRVVTKQTFQKYSPLELAKKIMPKKPPKTIEHYSKQQVDFLNILYGYISRHPECHLENLTIEKA	not soluble
MKFELDTTDGRARRGRLVFDRGVVETPCFMPVGTYGTVKGMTPEEVEATGAQIILGNTFHLWLRPGQEIMKLHGDLHDFMQWKGPILTDSGGFQVFSLGDIRKITEQGVHFRNPINGDPIFLDPEKSMEIQYDLGSDIVMIFDECTPYPADWDYAKRSMEMSLRWAKRSRERFDSLGNKNALFGIIQGSVYEDLRDISVKGLVDIGFDGYAVGGLAVGEPKADMHRILEHVCPQIPADKPRYLMGVGKPEDLVEGVRRGIDMFDCVMPTRNARNGHLFVTDGVVKIRNAKYKSDTGPLDPECDCYTCRNYSRAYLHHLDRCNEILGARLNTIHNLRYYQRLMAGLRKAIEEGKLESFVTDFYQRQGREVPPLNVD	soluble
MKFFILSTTLLLIGVQCGYPVAQNSYPTPPPPSDSYVVPKQSYPTAPGAYATKHSFPQNSAPVTAPPLPPPPAPSGYSSDDASVTSNVAASPPAPPTDAQIVGSSSSSTNYGGSSPTYGGSLSSGGIVGGNSLNYGTYNSASAGTPAATGAGASSGYRRRAKAKARARARARTAPNRRLHQRRHLQPIRRFRFQKKAKQ	soluble
MKFFVFALILALMLSMTGADSHAKRHHGYKRKFHEKHHSHRGYRSNYLYDNLEHHHHHH	not soluble
MKFIHLTDIHLMPPGQSVSGSDPIEKLSKVFEDIATWHSDAEFCVVSGDLADLGDRESYEWLRQRLAHFPVPVFLMLGNHDVRETFISVFPDHPRDANGFIQHAHTAGGARFLFLDTLTGGPDIHDGELCNDRLAWFAAELERAGDMPVYVFLHHPPFDIAIPYVDEIKLRQPDAFHAALQAGRNIRHIFYGHVHRTTYVNWRGYPFTSLPSTNHQVPLIPEREGQEHSAEPLAYGVATIEGDQFTLHVDHYLGK	not soluble
MKFKDLRDFVQQLEQRGELKRIQMPISPVLEMTEICDRTLRAKGPALLFENPVGFDIPVLGNLFGTPERVAMGMGAEAVTELREIGKLLAFLKEPEPPKGLKDAWSKLPIFRKVIAMAPKVVKDAPCQEIVIEGDDVDLGMLPVQTCWPGDVAPLITWGLTVTKGPNKERQNLGIYRQQVIGRNKIIMRWLSHRGGALDFRDWCVKHPGEPYPVAVALGADPATILGAVTPVPDSLSEYAFAGLLRGSRTELIKCRGSNLQVPASAEIVLEGVIHPGEMANEGPYGDHTGYYNEVDSFPVLTVERITHRIKPIYHSTYTGRPPDEPAILGVALNEVFVPILQKQFPEIVDFYLPPEGCSYRMAVVTIKKQYPGHAKRVMLGVWSFLRQFMYTKFVIVTDDDINARDWNDVIWAITTRMDPKRDTVMIDNTPIDYLDFASPVSGLGSKMGLDATNKWPGETTREWGRAIVKDEATTRRVDEIWTQLGIDLEHHHHHH	not soluble
MKFKQIILAGAVLATSTFTSLTNAQAETGFRDVPSDHWSYNAIMGLKEKNIVAGYGNGMFGFGDNITRGQVARLIYAYLKPADEHNAPNPFTDVKGHMFEKEILSLSKAGIMNGFGDGKFGPDNVLTREQLAVVLTKAFNFKATSTTTFKDVDKNYWATNAISALQENKIAAGTGDNLFEPKNIVTREQYAQFLYNAMNTVEVKPELTPFGIPSSMITNDFYYNSNNWKNASPVLKKSVSNEAQNLITKINKKYNEDYKYESASVSSMGLPESVQLRTSNPNLGRVYDLGQGQFFVQGENEHDFYIMFIIDNATVELAKSWITLINSDLNLDKEINDVIAMPSQKARGRDYHTYLDKGKYQIELGTSPQTKGYDSLFIGIKRK	not soluble
MKFLHTADLHLGKIVSGVSMLAEQEYILAQITKIAEEEQVDALILAGDLYDRAVPPADAVKVLNDILVKWNVELGIPIFAISGNHDSAERLAFGSQWYESSKLYMKGKCTSQFEAISFMDAEVWLVPYHEPAIIREAFADNSIRSFEDAMQAVTKQIRSKWDTSKAQILVGHAFVSGGIPSDSERQLAIGNVDRVSTDCFDGFTYTALGHLHHPHAIRHPSIFYSGSPLKYSFSEANDHKSVRIVELEGKELVSVTERFLTPKHDMRIISGTLAELTENLVENPDDFFQVNLMDEGALIDPMGKLRQFYPNILHLERKKQTLKETQDNFEEIMKKDDLELFGQFFEHVNGTELTETQKQKLADVFEQARKEDAE	not soluble
MKFSDFFHAWLHESYYKNAVSIGKNGDFFTAVSVGNLFGTLLAKHFLNLIDEKILKPPLELVEIGANEGYLSRDFLAALLELRPEIFSQISFFIIEPHEKLRTLQKKTLEGVEFTHKNSLKECHFKNAFFFCNELFDSFTCELIDHDKMAFVENFKLIFKNMDENLITKCKALNLTKGELSLELENFFKDLNQTCERFIFAGFDYGTLNPQSFSLRIYQKHEVFSPFEVSLKDFFGKSDLTYNVNFTHLQKLIKEYDFKPLAFKKQSLAFMDFGFEDLLEYAKNKNIKTYESFLSQAKILFFNFDEKFHFFEFQKNMGHHHHHHSH	soluble
MKFSVLTLFPQLVWPYFEDSILKRALEKNLFELEVLNLRDFSANKYQKADHTLIGGGAGQILDPEMVENALHSVKNPKHTIFLSAVGKPFKQTDAMRLAQKKHVVLVCGRYEGFDERSIELGADEVFCIGDFILTGGELGALCLIDSIARHIQGVLGNAQSLENESFENHYLEAPNFANAVFKSKEINKIPAPLEYSKGNHAKIKQLKLDLSKLRTKFYRLDLFKQHKSLEHHHHHH	not soluble
MKFVVASYGTRGDIEPCAAVGLELQRRGHDVCLAVPPNLIGFVETAGLSAVAYGSRDSQEQLDEQFLHNAWKLQNPIKLLREAMAPVTEGWAELSAMLTPVAAGADLLLTGQIYQEVVANVAEHHGIPLAALHFYPVRANGEIAFPARLPAPLVRSTITAIDWLYWRMTKGVEDAQRRELGLPKASTPAPRRMAVRGSLEIQAYDALCFPGLAAEWGGRRPFVGALTMESATDADDEVASWIAADTPPIYFGFGSMPIGSLADRVAMISAACAELGERALICSGPSDATGIPQFDHVKVVRVVSHAAVFPTCRAVVHHGGAGTTAAGLRAGIPTLILWVTSDQPIWAAQIKQLKVGRGRRFSSATKESLIADLRTILAPDYVTRAREIASRMTKPAASVTATADLLEDAARRAR	not soluble
